According to the supplement of paper PMC12855868:

B1: library; numbered along this chain (parent)
chain: MAAAGGARLLRAASAVLGGPAGRWLHHAGSRAGSSGLLRNRGPGGSAEASRSLSVSARARSSSEDKITVHFINRDGETLTTKGKVGDSLLDVVVENNLDIDGFGACEGTLACSTCHLIFEDHIYEKLDAITDEENDMLDLAYGLTDRSRLGCQICLTKSMDNMTVRVPETVADARQSIDVGKTS

Variants of: B1
Assay: scaled log2 fold change in cell abundance, elesclomol vs control (0 = silent mean, 1 = nonsense mean) (scaled log2 ratio); higher = higher viability under elesclomol (loss of FDX1 cuproptosis function)
Conditions: glucose 10 mM
[1] = with ABC1 FDX1 KO, elesclomol 5 nM, 14 days
[2] = with HEK293T FDX1 KO, elesclomol 40 nM, 11 days
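Note: variant abundance is its share of total variant reads in each endpoint sample, from next-generation sequencing of the integrated ORF PCR-amplified out of genomic DNA.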

Variant	scaled log2 fold change [1]	scaled log2 fold change [2]
MAAAGGARLLRAASAVLGGPAGRWLHHAGSRAGSSGLLRNRGPGGSAEASRSLSVSARARSSSEDKITVHFINRDGETLTTKGKVGDSLLDVVVENNLDIDGFGACEGTLACSTCHLIFEDHIYEKLDAITDEENDMLDLSYGLTDRSRLGCQICLTKSMDNMTVRVPETVADARQSIDVGKTS [A141S]	-0.0824	0.987
MAAAGGARLLRAASAVLGGPAGRWLHHAGSRAGSSGLLRNRGPGGSAEASRSLSVSARARSSSEDKITVHFINRDGETLTTKGKVGDSLLDVVVENNLDIDGFGACEGTLACSTCHLIFEDHIYEKLDAITDEENDMLDLYYGLTDRSRLGCQICLTKSMDNMTVRVPETVADARQSIDVGKTS [A141Y]	-0.374	-0.341
MAAAGGARLLRAASAVLGGPAGRWLHHAGSRAGSSGLLRNRGPGGSAEASRSLSVSARARSSSEDKITVHFINRDGETLTTKGKVGDSLLDVVVENNLDIDGFGACEGTLACSTCHLIFEDHIYEKLDAITDEENDMLDLRYGLTDRSRLGCQICLTKSMDNMTVRVPETVADARQSIDVGKTS [A141R]	0.0996	0.0982
MAAAGGARLLRAASAVLGGPAGRWLHHAGSRAGSSGLLRNRGPGGSAEASRSLSVSARARSSSEDKITVHFINRDGETLTTKGKVGDSLLDVVVENNLDIDGFGACEGTLACSTCHLIFEDHIYEKLDAITDEENDMLDLVYGLTDRSRLGCQICLTKSMDNMTVRVPETVADARQSIDVGKTS [A141V]	0.00876	0.0536
MAAAGGARLLRAASAVLGGPAGRWLHHAGSRAGSSGLLRNRGPGGSAEASRSLSVSARARSSSEDKITVHFINRDGETLTTKGKVGDSLLDVVVENNLDIDGFGACEGTLACSTCHLIFEDHIYEKLDAITDEENDMLDLTYGLTDRSRLGCQICLTKSMDNMTVRVPETVADARQSIDVGKTS [A141T]	0.135	0.788
MAAAGGARLLRAASAVLGGPAGRWLHHAGSRAGSSGLLRNRGPGGSAEASRSLSVSARARSSSEDKITVHFINRDGETLTTKGKVGDSLLDVVVENNLDIDGFGACEGTLACSTCHLIFEDHIYEKLDAITDEENDMLDLWYGLTDRSRLGCQICLTKSMDNMTVRVPETVADARQSIDVGKTS [A141W]	-0.0378	-0.209
MAAAGGARLLRAASAVLGGPAGRWLHHAGSRAGSSGLLRNRGPGGSAEASRSLSVSARARSSSEDKITVHFINRDGETLTTKGKVGDSLLDVVVENNLDIDGFGACEGTLACSTCHLIFEDHIYEKLDAITDEENDMLDLACGLTDRSRLGCQICLTKSMDNMTVRVPETVADARQSIDVGKTS [Y142C]	0.285	-0.427
MAAAGGARLLRAASAVLGGPAGRWLHHAGSRAGSSGLLRNRGPGGSAEASRSLSVSARARSSSEDKITVHFINRDGETLTTKGKVGDSLLDVVVENNLDIDGFGACEGTLACSTCHLIFEDHIYEKLDAITDEENDMLDLADGLTDRSRLGCQICLTKSMDNMTVRVPETVADARQSIDVGKTS [Y142D]	-0.228	1.12
MAAAGGARLLRAASAVLGGPAGRWLHHAGSRAGSSGLLRNRGPGGSAEASRSLSVSARARSSSEDKITVHFINRDGETLTTKGKVGDSLLDVVVENNLDIDGFGACEGTLACSTCHLIFEDHIYEKLDAITDEENDMLDLAAGLTDRSRLGCQICLTKSMDNMTVRVPETVADARQSIDVGKTS [Y142A]	-0.39	
